Measured values published in patent publication US20210340225A1.

Experiments:
[1] = target: prefusion stabilised SARS-CoV spike ectodomain trimer, residues 1-1160, two proline substitutions, T (SARS-CoV); assay: ELISA, 47D11 titrated on coated spike ectodomain
[2] = target: prefusion stabilised SARS-CoV spike ectodomain trimer, residues 1-1160, two proline substitutions, T (SARS-CoV); assay: ELISA: spike ectodomain coated on the plate, 47D11 titrated, OD450nm

Substance: 47D11 fully human IgG1 monoclonal antibody
- EC50 (read off the curve) [1]: 200 pM
- EC50 (read off the curve) [2]: 200 pM
